Reference: publication PMC12635110

Target: MCPH1-BRCT-eCR (tandem BRCT 2-3 of MCPH1) tandem BRCT domain (BRCT2-3)
Experiment: FRAP of eGFP in live cells
Details: reference: DMSO, outside spontaneous damage foci; sites S139

## H2AX (from UniProt P16104) ETO ~1 h, within a damage focus
  other: FRAP recovery half-life: same; reference 1.07 ± 0.76
